According to the supplement of paper PMC7877785:
± gives the uncertainty stated by the source.

Test: self-splicing fitness, log relative to wild type (ln ratio); higher = more splicing; Tetrahymena group I intron in knt gene, E. coli kanamycin selection, DiMSum; sequences stand for … in CUCUCU…GGAGGGAAAAGUUAUCAGGCAUGCACCUGGUAGCUAGUCUUUAAACCAAUAGAUUGCAUCGGUUUAAAAGGCAAGACCGUCAAAUUGCGGGAAAGGGGUCAACAGCCGUUCAGUACCAAGUCUCAGGGGAAACUUUGAGAUGGCCUUGCAAAGGGUAUGGUAAUAAGCUGACGGACAUGGUCCUAACCACGCAGCCAAGUCCUAAGUCAACAGAUCUUCUGUUGAUAUGGAUGCAGUUCACAGACUAAAUGUCGGUCGGGGAAGAUGUAUUCUUCUCAUAAGAUAUAGUCGGACCUCUCCUUAAUGGGAGCUAGCGGAUGAAGUGAUGCAACACUGGAGCCGCUGGGAACUAAUUUGUAUGCGAAAGUAUAUUGAUUAGUUUUGGAGUACUCGUGGUCG
Outline: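 A randomised library covering all eight P1ex-region intron nucleotides was built with the intron in the knt kanamycin-resistance gene on pET-22b(+) and held in E. coli BL21(DE3). Cells were grown overnight at 37°C or 30°C on LB agar, with or without 25 μg/mL kanamycin, plus 100 μg/mL carbenicillin, 50 μM IPTG and 0.2% rhamnose, and pooled colonies were amplicon-sequenced on an Illumina HiSeq 2500. DiMSum fitness is the error-weighted combination of wild-type-normalised replicate fold changes, kanamycin versus none.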

## CGCAAGCAAUAUUACGCGGC
30 °C
  self-splicing fitness (ln): -3.05 ± 0.28
37 °C
  self-splicing fitness (ln): -2.81 ± 0.38

## CGCAAGCAAUAUUACGCGUC
30 °C
  self-splicing fitness (ln): -3.7 ± 0.37
37 °C
  self-splicing fitness (ln): -3.31 ± 0.35

## CGCAAGCAAUAUUACGCUUC
30 °C
  self-splicing fitness (ln): -3.18 ± 0.3

## CGCAAGCAAUAUUACGCUUG
30 °C
  self-splicing fitness (ln): -2.74 ± 0.2
37 °C
  self-splicing fitness (ln): -1.87 ± 0.21

## CGCAAGCAAUAUUACGCUUU
30 °C
  self-splicing fitness (ln): -3.44 ± 0.21
37 °C
  self-splicing fitness (ln): -2.34 ± 0.21

## CGCAAGCAAUAUUACGGAUC
30 °C
  self-splicing fitness (ln): -2 ± 0.19
37 °C
  self-splicing fitness (ln): -2.21 ± 0.18

## CGCAAGCAAUAUUACGGAUG
30 °C
  self-splicing fitness (ln): -1.2 ± 0.062
37 °C
  self-splicing fitness (ln): -0.889 ± 0.073

## CGCAAGCAAUAUUACGGCAA
30 °C
  self-splicing fitness (ln): -1.41 ± 0.1
37 °C
  self-splicing fitness (ln): -0.0385 ± 0.081

## CGCAAGCAAUAUUACGGCAG
30 °C
  self-splicing fitness (ln): -0.448 ± 0.072
37 °C
  self-splicing fitness (ln): -0.305 ± 0.1

## CGCAAGCAAUAUUACGGUAA
30 °C
  self-splicing fitness (ln): -3.47 ± 0.16
37 °C
  self-splicing fitness (ln): -1.67 ± 0.1

## CGCAAGCAAUAUUACGGUCU
30 °C
  self-splicing fitness (ln): -0.969 ± 0.066
37 °C
  self-splicing fitness (ln): -0.898 ± 0.081

## CGCAAGCAAUAUUACGUACG
30 °C
  self-splicing fitness (ln): -2.03 ± 0.086
37 °C
  self-splicing fitness (ln): -0.768 ± 0.1

## CGCAAGCAAUAUUACGUGAA
30 °C
  self-splicing fitness (ln): -2.5 ± 0.11
37 °C
  self-splicing fitness (ln): -1.08 ± 0.11

## CGCAAGCAAUAUUACGUGAU
30 °C
  self-splicing fitness (ln): -4.09 ± 0.16
37 °C
  self-splicing fitness (ln): -1.63 ± 0.11

## CGCAAGCAAUAUUACGUGUA
30 °C
  self-splicing fitness (ln): -2.88 ± 0.13
37 °C
  self-splicing fitness (ln): -0.494 ± 0.1

## CGCAAGCAAUAUUACGUUAG
30 °C
  self-splicing fitness (ln): -1.15 ± 0.073
37 °C
  self-splicing fitness (ln): -1.42 ± 0.1

## CGCCAGCAAUAUUACGAAUU
30 °C
  self-splicing fitness (ln): -4.49 ± 0.27
37 °C
  self-splicing fitness (ln): -1.46 ± 0.17

## CGCCAGCAAUAUUACGAGAU
30 °C
  self-splicing fitness (ln): -3.69 ± 0.18
37 °C
  self-splicing fitness (ln): -2.04 ± 0.17

## CGCCAGCAAUAUUACGAUAG
30 °C
  self-splicing fitness (ln): 0.428 ± 0.062
37 °C
  self-splicing fitness (ln): 0.155 ± 0.081

## CGCCAGCAAUAUUACGCAAU
30 °C
  self-splicing fitness (ln): -4.2 ± 0.21
37 °C
  self-splicing fitness (ln): -2.63 ± 0.22

## CGCCAGCAAUAUUACGCAUC
30 °C
  self-splicing fitness (ln): -3.71 ± 0.16
37 °C
  self-splicing fitness (ln): -2.74 ± 0.17

## CGCCAGCAAUAUUACGCAUU
30 °C
  self-splicing fitness (ln): -3.11 ± 0.25
37 °C
  self-splicing fitness (ln): -2.01 ± 0.18

## CGCCAGCAAUAUUACGCCAA
30 °C
  self-splicing fitness (ln): -1.59 ± 0.23
37 °C
  self-splicing fitness (ln): -2.02 ± 0.46

## CGCCAGCAAUAUUACGCCAC
37 °C
  self-splicing fitness (ln): -1.48 ± 0.2

## CGCCAGCAAUAUUACGCCGU
30 °C
  self-splicing fitness (ln): -2.59 ± 0.15
37 °C
  self-splicing fitness (ln): -1.71 ± 0.17

## CGCCAGCAAUAUUACGCGCU
30 °C
  self-splicing fitness (ln): -3.54 ± 0.15
37 °C
  self-splicing fitness (ln): -2.52 ± 0.15

## CGCCAGCAAUAUUACGCUGC
30 °C
  self-splicing fitness (ln): -4.16 ± 0.41
37 °C
  self-splicing fitness (ln): -2.24 ± 0.28

## CGCCAGCAAUAUUACGGAAU
30 °C
  self-splicing fitness (ln): -2.95 ± 0.2
37 °C
  self-splicing fitness (ln): -2.05 ± 0.21

## CGCCAGCAAUAUUACGGAGA
37 °C
  self-splicing fitness (ln): -2.4 ± 0.24

## CGCCAGCAAUAUUACGGCUU
30 °C
  self-splicing fitness (ln): -0.48 ± 0.07
37 °C
  self-splicing fitness (ln): -0.347 ± 0.08

## CGCCAGCAAUAUUACGGGAC
37 °C
  self-splicing fitness (ln): -2.48 ± 0.24

## CGCCAGCAAUAUUACGGUAG
30 °C
  self-splicing fitness (ln): -2.51 ± 0.11
37 °C
  self-splicing fitness (ln): -2.03 ± 0.18

## CGCCAGCAAUAUUACGGUUU
30 °C
  self-splicing fitness (ln): -0.936 ± 0.056
37 °C
  self-splicing fitness (ln): -0.589 ± 0.059

## CGCCAGCAAUAUUACGUGCU
30 °C
  self-splicing fitness (ln): -3.27 ± 0.2
37 °C
  self-splicing fitness (ln): -3.23 ± 0.33

## CGCCAGCAAUAUUACGUGUG
30 °C
  self-splicing fitness (ln): -2.82 ± 0.094
37 °C
  self-splicing fitness (ln): -1.81 ± 0.11

## CGCCAGCAAUAUUACGUUAG
30 °C
  self-splicing fitness (ln): -0.475 ± 0.074
37 °C
  self-splicing fitness (ln): 0.385 ± 0.099

## CGCCAGCAAUAUUACGUUCA
30 °C
  self-splicing fitness (ln): -2.8 ± 0.12
37 °C
  self-splicing fitness (ln): -1.86 ± 0.11

## CGCCAGCAAUAUUACGUUGG
30 °C
  self-splicing fitness (ln): -2.64 ± 0.14
37 °C
  self-splicing fitness (ln): -2.68 ± 0.24

## CGCGAGCAAUAUUACGAAGG
30 °C
  self-splicing fitness (ln): -2.81 ± 0.24
37 °C
  self-splicing fitness (ln): -2.64 ± 0.27

## CGCGAGCAAUAUUACGAAUU
30 °C
  self-splicing fitness (ln): -3.16 ± 0.27
37 °C
  self-splicing fitness (ln): -2.03 ± 0.21

## CGCGAGCAAUAUUACGACUU
37 °C
  self-splicing fitness (ln): -1.2 ± 0.47

## CGCGAGCAAUAUUACGAUAG
30 °C
  self-splicing fitness (ln): -1.05 ± 0.13
37 °C
  self-splicing fitness (ln): -0.593 ± 0.16

## CGCGAGCAAUAUUACGCAUU
30 °C
  self-splicing fitness (ln): -2.71 ± 0.18
37 °C
  self-splicing fitness (ln): -3.29 ± 0.35

## CGCGAGCAAUAUUACGCGCC
30 °C
  self-splicing fitness (ln): -1.37 ± 0.28
37 °C
  self-splicing fitness (ln): -1.66 ± 0.48

## CGCGAGCAAUAUUACGCGCU
37 °C
  self-splicing fitness (ln): -1.67 ± 0.32

## CGCGAGCAAUAUUACGGAAC
30 °C
  self-splicing fitness (ln): -3.86 ± 0.22
37 °C
  self-splicing fitness (ln): -2.43 ± 0.29

## CGCGAGCAAUAUUACGGAGG
30 °C
  self-splicing fitness (ln): -3.29 ± 0.22
37 °C
  self-splicing fitness (ln): -1.41 ± 0.19

## CGCGAGCAAUAUUACGGGAA
30 °C
  self-splicing fitness (ln): -3.74 ± 0.27
37 °C
  self-splicing fitness (ln): -2.4 ± 0.29

## CGCGAGCAAUAUUACGGGCU
30 °C
  self-splicing fitness (ln): -3.12 ± 0.21
37 °C
  self-splicing fitness (ln): -1.17 ± 0.24
